Measurements: paper PMC8584774

Target: α-cardiac actin (F-actin) (Sus scrofa)
Assay: co-sedimentation; high-speed cosedimentation; F-actin (0–40 µM) with 5 µM C0–C2 or 30 µM C2; 25 mM HEPES pH 7.3, 25 mM KCl, 5 mM MgCl2, 1 mM EGTA; 30 min at room temperature; 55,000 rpm 30 min; SDS-PAGE densitometry of supernatant and pellet; quadratic fit

Row | percent of C2 in the pellet fraction [%] | Kd [nM] | Substance
1 | < 2 |  | MyBPC C2 wt (isolated IgI-like C2 domain of cardiac myosin-binding protein C) (from UniProt Q14896 362-452) (domain or fragment)
2 |  | 2800 | MyBPC C0–C2 D389V (from UniProt Q14896 1-452) (domain or fragment)
3 |  | 3200 | MyBPC C0–C2 wt (cardiac myosin-binding protein C, N-terminal fragment with subdomains C0 to C2) (from UniProt Q14896 1-452) (domain or fragment)
